# Test results published in article PMC9212912 (Structure (London, England : 1993), 2022).
# Ends that are not written are not given here.
# Legend:
# [1] = target: BRD4 bromodomain 1 (residues 43–180) (human, UniProt O60885 43-180); test: NMR titration
# BRD4 ET domain (600–700) [2] = target: T1, BRD4 ET domain (600–700) (human, UniProt O60885 600-700); test: MST
# BRD4 ET domain (600–700) [3] = target: T1, BRD4 ET domain (600–700); test: NMR titration
Binder,Kd [1] [µM],other results
SLVK(Ac)PS [monoacetylated SARS-CoV-2 E^K53ac peptide (aa 50–55 of SARS-CoV-2 E)],> 1000,
SRVK(Ac)NLNSS [monoacetylated SARS-CoV-2 E^K63ac peptide (aa 60–68 of SARS-CoV-2 E)],660,
{FAM}-SFYVYSRVKNLN [FAM-SARS-CoV-2 E^55–66 peptide],,Kd (BRD4 ET domain (600–700) [2]): 50 µM
KPSFYVYSRVKNLNSSRVPD [SARS-CoV-2 E^53−72 peptide (aa 53–72 of SARS-CoV-2 E)],,binding result (BRD4 ET domain (600–700) [3]): binds
